# Source: PMC10015821 (Matrix biology : journal of the International Society for …, 2022)
# B1: hybrid fragment: two TY domains of NID2 with the G3 domain of NID1 (N2T-N1G3) (domain or fragment)
# chain: LKPCEYQQRYAQTQHAYPGSRIHIPQCDDQGNFVPLQCHGSTGFCWCVDRNGHEVPGTQTPPGSTPPHCGPPPEPTQRPRTVCERWRESLLEHYGGTPRDDQYVPQCDDLGHFIPLQCHGKSDFCWCVDKDGRELQGTRSQPGTRPACLSTVAPPIHQGPVVPTAVIPLPPGTHLLFAQTGKIERLPLERNTMKKTEAKAFLHIPAKVIIGLAFDCVDKVVYWTDISEPSIGRASLHGGEPTTIIRQDLGSPEGIALDHLGRTIFWTDSQLDRIEVAKMDGTQRRVLFDTGLVNPRGIVTDPVRGNLYWTDWNRDNPKIETSHMDGTNRRILAQDNLGLPNGLTFDAFSSQLCWVDAGTHRAECLNPAQPGRRKVLEGLQYPFAVTSYGKNLYYTDWKTNSVIAMDLAISKEMDTFHPHKQTRLYGITIALSQCPQGHNYCSVNNGGCTHLCLPTPGSRTCRCPDNTLGVDCIERK
# B2: mouse nidogen-1 (NID1), full-length (natural protein, UniProt P10493 29-1245, looked up)
# chain: LNRQELFPFGPGQGDLELEAGDDVVSPSLELIGELSFYDRTDITSVYVTTNGIIAMSEPPATEYHPGTFPPSFGSVAPFLADLDTTDGLGNVYYREDLSPFIIQMAAEYVQRGFPEVSFQPTSVVVVTWESVAPYGGPSSSPAEEGKRNTFQAVLASSNSSSYAIFLYPEDGLQFFTTFSKKDESQVPAVVGFSKGLVGFLWKSNGAYNIFANDRESIENLAKSSNAGHQGVWVFEIGSPATAKGVVSADVNLDLDDDGADYEDEDYDLVTSHLGLEDVATPSPSHSPRRGYPDPHNVPRILSPGYEATERPRGVPTERTRSFQLPAERFPQHHPQVIDVDEVEETGVVFSYNTGSQQTCANNRHQCSVHAECRDYATGFCCRCVANYTGNGRQCVAEGSPQRVNGKVKGRIFVGSSQVPVVFENTDLHSYVVMNHGRSYTAISTIPETVGYSLLPLAPIGGIIGWMFAVEQDGFKNGFSITGGEFTRQAEVTFLGHPGKLVLKQQFSGIDEHGHLTISTELEGRVPQIPYGASVHIEPYTELYHYSSSVITSSSTREYTVMEPDQDGAAPSHTHIYQWRQTITFQECAHDDARPALPSTQQLSVDSVFVLYNKEERILRYALSNSIGPVRDGSPDALQNPCYIGTHGCDSNAACRPGPGTQFTCECSIGFRGDGQTCYDIDECSEQPSRCGNHAVCNNLPGTFRCECVEGYHFSDRGTCVAAEDQRPINYCETGLHNCDIPQRAQCIYMGGSSYTCSCLPGFSGDGRACRDVDECQHSRCHPDAFCYNTPGSFTCQCKPGYQGDGFRCMPGEVSKTRCQLEREHILGAAGGADAQRPTLQGMFVPQCDEYGHYVPTQCHHSTGYCWCVDRDGRELEGSRTPPGMRPPCLSTVAPPIHQGPVVPTAVIPLPPGTHLLFAQTGKIERLPLERNTMKKTEAKAFLHIPAKVIIGLAFDCVDKVVYWTDISEPSIGRASLHGGEPTTIIRQDLGSPEGIALDHLGRTIFWTDSQLDRIEVAKMDGTQRRVLFDTGLVNPRGIVTDPVRGNLYWTDWNRDNPKIETSHMDGTNRRILAQDNLGLPNGLTFDAFSSQLCWVDAGTHRAECLNPAQPGRRKVLEGLQYPFAVTSYGKNLYYTDWKTNSVIAMDLAISKEMDTFHPHKQTRLYGITIALSQCPQGHNYCSVNNGGCTHLCLPTPGSRTCRCPDNTLGVDCIERK
# B3: hybrid fragment: single TY domain of NID1 with the G3 domain of Nid2 (N1T-N2G3) (domain or fragment)
# chain: KTRCQLEREHILGAAGGADAQRPTLQGMFVPQCDEYGHYVPTQCHHSTGYCWCVDRDGRELEGSRTPPGMRPPCIPTVAPPVVRPTPRPDVTPPSVGTFLLYAQGQQIGHLPLNGSRLQKDAARTLLSLHGSIVVGIDYDCRERMVYWTDVAGRTISRASLEAGAEPETIITSGLISPEGLAIDHFRRTMYWTDSGLDKIERAELDGSERKVLFHTDLVNPRAITVDPIRGNLYWTDWNREAPKIETSSLDGENRRILINKDIGLPNGLTFDPFSKLLCWADAGTKKLECTLPDGTGRRVIQNHLNYPFSIVSYADHFYHTDWRRDGVISVNKDSGQFTDEFLPEQRSHLYGITAVYPYCPTGRK
# B4: mouse nidogen-2 (NID2), full-length, Strep-tagged (natural protein, UniProt O88322 31-1403, looked up)
# chain: LRPDELFPYGESWGDQLLPEGDDESSAAVKLAIPLRFYDAQFSSLYVGTNGIISTQDFPRETQYVDDDFPTDFPAIAPFLADIDTSHSRGRILYREDTSGAVLSLAARYVRTGFPLSGSSFTPTHAFLATWEHVGAYEEVSRGAAPSGELNTFQAVLASDESDTYALFLYPANGLQFFGTRPKESYNVQLQLPARVGFCRGEADDLKREALYFSLTNTEQSVKNLYQLSNLGIPGVWAFHIGSRFALDNVRPATVGGDPSTARSSALEHPFSHAAALESYTEDSFHYYDENEEDVEYPPVEPGEAPEGHSRIDVSFNSKADPGLVDVGTSSPGSDRASPWPYPAPGNWPSYRETESASLDPQTKQGRPVGEGEVLDFRDPAELLDQMGTRAPAPPEADAALLTPVNEDLGGRNTQSYPEAGPVPSEPDVPVPPLEGEVLPHYPESGHVPPLRGGKYVIGLEDHVGSNDQVFTYNGANLETCEHSHGRCSQHAFCTDYTTGFCCHCQSRFYGNGKHCLPEGAPHRVNGKVSGRLRVGHIPVHFTDVDLHAYIVGNDGRAYTAISHVPQPAAQALLPVLPIGGLFGWLFALEKPGSENGFSLTGATFVHDVEVTFHPGEERVRITQTAEGLDPENYLSIKTNIEGQVPFIPANFTAHITPYKEFYHYRDSVVTSSSSRSFSLTSGSINQTWSYHIDQNITYQACRHAPRHLAIPATQQLTVDRAFALYSEDEGVLRFAVTNQIGPVEVDSAPVGVNPCYDGSHTCDTTARCHPGTGVDYTCECTPGFQGDGRSCVDVNECATGFHRCGPNSVCVNLVGSYRCECRSGYEFADDQHTCILIAPPPNPCLDGSHTCAPEGQARCIHHGGSSFSCACLPGFIGTGHQCSDVDECAENRCHEAAICYNTPGSFSCRCQPGYRGDGFHCTSDTVPEDSISGLKPCEYQQRYAQTQHAYPGSRIHIPQCDDQGNFVPLQCHGSTGFCWCVDRNGHEVPGTQTPPGSTPPHCGPPPEPTQRPRTVCERWRESLLEHYGGTPRDDQYVPQCDDLGHFIPLQCHGKSDFCWCVDKDGRELQGTRSQPGTRPACIPTVAPPVVRPTPRPDVTPPSVGTFLLYAQGQQIGHLPLNGSRLQKDAARTLLSLHGSIVVGIDYDCRERMVYWTDVAGRTISRASLEAGAEPETIITSGLISPEGLAIDHFRRTMYWTDSGLDKIERAELDGSERKVLFHTDLVNPRAITVDPIRGNLYWTDWNREAPKIETSSLDGENRRILINKDIGLPNGLTFDPFSKLLCWADAGTKKLECTLPDGTGRRVIQNHLNYPFSIVSYADHFYHTDWRRDGVISVNKDSGQFTDEFLPEQRSHLYGITAVYPYCPTGRK
# How the values were obtained:
# Test in all cases: SPR
# [1] = target: mouse HMCN1 fragment G2F (mouse) (UniProt D3YXG0)
# [2] = target: mouse HMCN1 fragment G2F-EGF1–2 (mouse) (UniProt D3YXG0)
# [3] = target: mouse HMCN1 fragment G2F-EGF1–3 (mouse) (UniProt D3YXG0)
# [4] = target: mouse HMCN1 fragment G2F-EGF1–4 (mouse) (UniProt D3YXG0)
# [5] = target: mouse HMCN1 fragment G2F-EGF1–5 (Strep-tagged) (mouse) (UniProt D3YXG0)
# [6] = target: mouse HMCN1 fragment TSR6-G2F-EGF1–2 (mouse) (UniProt D3YXG0)
# [7] = target: mouse HMCN1 fragment G2F-EGF1–5 (Strep-tagged) (mouse, UniProt D3YXG0 22-5634)
# laminin-511 = laminin-511 (UniProt O15230 36-3695; P07942 22-1786; P11047 34-1609)
# [8] = target: laminin-γ1 short arm (mouse) (UniProt P02468)
# [9] = target: mouse HMCN1 fragment EGF1–5 (mouse) (UniProt D3YXG0)
# Chain of laminin-γ1 short arm (mouse) (P02468 34-1607): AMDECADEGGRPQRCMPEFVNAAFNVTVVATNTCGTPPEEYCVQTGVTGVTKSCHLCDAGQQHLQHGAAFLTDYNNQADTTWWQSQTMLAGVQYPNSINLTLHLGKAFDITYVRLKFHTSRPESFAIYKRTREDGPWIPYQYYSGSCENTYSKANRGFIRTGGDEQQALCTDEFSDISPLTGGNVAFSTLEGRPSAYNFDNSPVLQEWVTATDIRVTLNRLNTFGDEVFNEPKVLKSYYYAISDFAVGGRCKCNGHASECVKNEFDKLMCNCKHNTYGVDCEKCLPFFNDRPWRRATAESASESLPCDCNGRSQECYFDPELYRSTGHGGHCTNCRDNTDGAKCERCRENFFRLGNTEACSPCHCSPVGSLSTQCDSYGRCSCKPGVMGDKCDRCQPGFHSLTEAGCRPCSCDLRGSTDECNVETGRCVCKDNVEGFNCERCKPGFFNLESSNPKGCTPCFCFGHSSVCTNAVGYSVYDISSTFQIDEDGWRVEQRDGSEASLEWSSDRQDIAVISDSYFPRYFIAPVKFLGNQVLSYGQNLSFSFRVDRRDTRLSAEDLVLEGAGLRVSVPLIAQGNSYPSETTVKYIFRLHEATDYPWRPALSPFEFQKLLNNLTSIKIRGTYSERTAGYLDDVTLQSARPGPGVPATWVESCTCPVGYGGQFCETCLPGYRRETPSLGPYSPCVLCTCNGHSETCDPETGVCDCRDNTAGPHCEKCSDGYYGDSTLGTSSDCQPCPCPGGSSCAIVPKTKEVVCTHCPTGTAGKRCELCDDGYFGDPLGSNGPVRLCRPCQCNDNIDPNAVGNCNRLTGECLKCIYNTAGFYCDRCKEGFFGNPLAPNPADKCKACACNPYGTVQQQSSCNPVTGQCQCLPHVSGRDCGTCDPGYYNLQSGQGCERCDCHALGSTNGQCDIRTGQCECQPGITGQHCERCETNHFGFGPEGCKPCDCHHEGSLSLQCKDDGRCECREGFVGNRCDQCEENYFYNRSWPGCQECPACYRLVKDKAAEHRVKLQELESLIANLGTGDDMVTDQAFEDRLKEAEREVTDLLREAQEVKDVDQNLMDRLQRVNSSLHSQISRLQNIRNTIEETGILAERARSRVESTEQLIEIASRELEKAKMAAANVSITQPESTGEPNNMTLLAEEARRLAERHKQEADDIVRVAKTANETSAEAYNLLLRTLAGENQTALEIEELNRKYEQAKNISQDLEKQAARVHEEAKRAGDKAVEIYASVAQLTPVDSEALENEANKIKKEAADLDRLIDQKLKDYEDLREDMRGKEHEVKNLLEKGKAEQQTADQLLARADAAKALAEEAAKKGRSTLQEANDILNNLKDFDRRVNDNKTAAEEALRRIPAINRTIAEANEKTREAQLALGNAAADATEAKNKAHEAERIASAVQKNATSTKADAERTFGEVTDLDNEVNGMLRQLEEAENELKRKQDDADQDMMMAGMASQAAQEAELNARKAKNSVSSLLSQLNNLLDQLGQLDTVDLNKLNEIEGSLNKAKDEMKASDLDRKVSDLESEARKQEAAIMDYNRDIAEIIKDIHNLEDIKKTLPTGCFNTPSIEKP
Molecule,Kd [1] [nM],Kd [2] [nM],Kd [3] [nM],Kd [4] [nM],Kd [5] [nM],Kd [6] [nM],Kd [7] [nM],Kd (laminin-511) [nM],koff (laminin-511) [s⁻¹],also measured
"mouse NID2 TY-G3 (TG3) domain, Strep-tagged (from UniProt O88322 31-1403) (domain or fragment)",> 3000,185,170,180,30,176,,,,
mouse NID1 TY-G3 (TG3) domain (from UniProt P10493 29-1245) (domain or fragment),,,,,585,,,,,
B1,,,,,,,170,,,
B2,,,,,560,,,2.4,0.0021,
B3,,,,,,,110,,,
B4,> 3000,200,210,193,20,160,,5,0.00081,Kd [8]: 6 nM; koff [8]: 0.00073 s⁻¹; kon [8]: 120000 M⁻¹ s⁻¹; Kd [9]: 500 nM; koff [5]: 0.00837 s⁻¹
